Experimental data from patent US20240069021A1 (ASAHI KASEI, published 2024).

B1: Generic Antibody C (CP141A190.1) (antibody, V domains shown)
VH: QVQLQQPGAELVKPGASVKLSCKTSGYNFTSNWIHWVKQRPGQGLEWIGEINPSNGRANYNEKFKNKATLTVDKSSSTAFMHLSSLTSEDSAVYFCSRGDFDEGFTYWGQGTLVTVSA
VL: QIVLTQSPAIMSASLGERVTMTCTASSNVNSDYLHWYQQKPGSSPRLWIYTTSNLASGVPTRFSGNGSGTSYSLTISSMEAEDAATYYCHQYHRSPRTFGGGTKLEIK
B2: Specific Antibody A (HI142D11.3) (antibody, V domains shown)
VH: EVQLQQSGAELVKPGASVKLSCTASGFNIKDTYIHWVKQRPEQGLEWIGRIDPANGNTKYDPKFQGKATITADTSSNTAYLQLSSLTSEDTAVYYCPRPYGYVGWYFDVWGAGTTVTVSS
VL: DIVMTQSHKFMSTSVGDRVSITCKASQDVRNAVAWYQQKPGQSPKLLISSASYRYSGVPDRFTGSGSGTDFTFTISSVQAEDLAVYYCQQHYDTPPTFGGGTKLEIK
B3: Specific Antibody D (EC50C1) (antibody, V domains shown)
VH: QVQLQQSGAELAKPGASVKMSCKASGYTFTSYWMNWVKQRPGQGLEWIGYINPNTGYTEYDQKFKDKATLTADKSSSTAYMQLSSLTSEDSAVYYCARYWAYFEYWGQGTTLTVSS
VL: DIKMTQSPSSMYASLGERVTITCKASQDINSYLSWFQQKPGKSPKTLIYRANRLVDGVPSRFSGSGSGQDYSLTISSLEYEDMGIYYCLQYDEFRTFGGGTKLEIK
B4: Generic Antibody A (PA51B2) (antibody, V domains shown)
VH: QVQLQQPGSVLVRPGASVKLSCKPSGYTFTGSWMHWTKQRPGQGLEWIGEIHPYSGNTNYNEKFRVKATLTVDTSSSTTYVDLSSLTSDDSAVYYCASGDFDAGFTYWGQGTLVTVSA
VL: DIVLTQSPASLAVSLGRRATISCKASQSVDYDGDSYMNWYQQKPGQPPKLLIYVASNLESGIPARFSGSGSGTDFTLNIHPVEEEDAATYYCQQTNEDPFTFGAGTKLELK
B5: Generic Antibody B (LP54A3) (antibody, V domains shown)
VH: EVQLQQSGAELVKPGASVRLSCSASGFNIKDTYMHWMRQRPEQGLEWIGRIDPANGNAKYDPKFQVKATITADTSSNTASLQFSSLTSEDTAVYFCASESLDDMYYFDYWGQGTTLTVSS
VL: DIVMTQSQKFMSTSVGDRVSVTCKASQNVGVNVAWYQQKPGQSPKALIYSASYRYSGVPDRFTGSGSGTDFTLTISNVQSEDLAEYFCQQYHSYLYTFGGGTKLEIK

Experiments:
[1] = target: T1, ribosomal protein L7/L12 of Escherichia coli (EC), recombinant tagged fusion protein (Escherichia coli, UniProt P0A7K2 1-121); test: ELISA on coated recombinant L7/L12, antibody 10 ug/mL
[2] = target: ribosomal protein L7/L12 of Listeria monocytogenes (LM), recombinant tagged fusion protein (Listeria monocytogenes); test: as above
[3] = target: ribosomal protein L7/L12 of Enterobacter cloacae (ECL), recombinant tagged fusion protein (Enterobacter cloacae); test: as above
[4] = target: T2, ribosomal protein L7/L12 of Pseudomonas aeruginosa (PA), recombinant tagged fusion protein (Pseudomonas aeruginosa, UniProt Q9HWC8 1-122); test: as above
T2 sequence: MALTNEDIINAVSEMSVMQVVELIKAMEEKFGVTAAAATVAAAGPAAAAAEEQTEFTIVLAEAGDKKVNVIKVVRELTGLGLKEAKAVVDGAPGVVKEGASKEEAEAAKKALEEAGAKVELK

[5] = target: T3, ribosomal protein L7/L12 of Bacillus subtilis (BS), recombinant tagged fusion protein (Bacillus subtilis, UniProt P02394 1-123); test: as above
T3 sequence: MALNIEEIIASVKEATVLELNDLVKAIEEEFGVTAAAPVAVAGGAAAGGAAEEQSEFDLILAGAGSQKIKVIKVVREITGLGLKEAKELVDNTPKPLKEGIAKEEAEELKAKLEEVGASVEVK

[6] = target: ribosomal protein L7/L12 of Staphylococcus aureus (SA), recombinant tagged fusion protein (Staphylococcus aureus); test: as above
[7] = target: ribosomal protein L7/L12 of Rahnella aquatilis (RA), recombinant tagged fusion protein (Rahnella aquatilis); test: as above
[8] = target: ribosomal protein L7/L12 of Klebsiella pneumoniae (KP), recombinant tagged fusion protein (Klebsiella pneumoniae); test: as above
[9] = target: ribosomal protein L7/L12 of Citrobacter freundii (CF), recombinant tagged fusion protein (Citrobacter freundii); test: as above
[10] = target: ribosomal protein L7/L12 of Serratia liquefaciens (SL), recombinant tagged fusion protein (Serratia liquefaciens); test: as above
[11] = target: ribosomal protein L7/L12 of Salmonella enterica (SE), recombinant tagged fusion protein (Salmonella enterica); test: as above
[12] = target: T1, ribosomal protein L7/L12 of Escherichia …; test: ELISA on coated recombinant L7/L12 (10 ng/mL), antibody 10 ug/mL, A450; + means absorbance >= 0.3

Binder | absorbance (450 nm) [1] | absorbance (450 nm) [2] | absorbance (450 nm) [3] | absorbance (450 nm) [4] | absorbance (450 nm) [5] | absorbance (450 nm) [6] | absorbance (450 nm) [7] | absorbance (450 nm) [8] | absorbance (450 nm) [9] | absorbance (450 nm) [10] | absorbance (450 nm) [11] | binding result [12]
B1 | ≥ 0.3 | ≥ 0.3 | ≥ 0.3 | ≥ 0.3 | ≥ 0.3 | ≥ 0.3 | ≥ 0.3 | ≥ 0.3 | ≥ 0.3 | ≥ 0.3 | ≥ 0.3 | –
B2 | – | – | – | – | – | – | – | – | – | – | – | binds
B3 | – | – | – | – | – | – | – | – | – | – | – | binds
B4 | ≥ 0.3 | ≥ 0.3 | ≥ 0.3 | ≥ 0.3 | ≥ 0.3 | ≥ 0.3 | ≥ 0.3 | ≥ 0.3 | ≥ 0.3 | ≥ 0.3 | ≥ 0.3 | –
B5 | ≥ 0.3 | – | – | ≥ 0.3 | ≥ 0.3 | – | – | – | – | – | – | –
